Experimental data from patent US20210355194A1 (TWIST BIOSCIENCE, published 2021).
Residue numbers refer to the chain shown, from its start.

B1: variant 6-63 (Fc fusion)
VHH: EVQLVESGGGLVQPGGSLRLSCAASGQTFNMGWFRQAPGKEREFVAAIGSGGSTSYADSVKGRFTISADNSKNTAYLQMNSLKPEDTAVYYCWRLGNDYFDYWGQGTLVTVSS
notes: also called VHH nanobody 6-63
B2: variant 6-85 (Fc fusion)
VHH: EVQLVESGGGLVQPGGSLRLSCAASGGTFSVFAMGWFRQAPGKEREFVSAINWSGGSLLYADSVKGRFTISADNSKNTAYLQMNSLKPEDTAVYYCALFGDFDYWGQGTLVTVSS
B3: variant 6-76 (Fc fusion)
VHH: EVQLVESGGGLVQPGGSLRLSCAASGLAFDFDGMGWFRQAPGKEREGVAAINSGGSTYYADSVKGRFTISADNSKNTAYLQMNSLKPEDTAVYYCARFFRAHDYWGQGTLVTVSS
B4: variant 6-73 (Fc fusion)
VHH: EVQLVESGGGLVQPGGSLRLSCAASGHTFSGYAMGWFRQAPGKEREFVAVITREGSTYYADSVKGRFTISADNSKNTAYLQMNSLKPEDTAVYYCARLGGEGFDYWGQGTLVTVSS
B5: variant 6-3 (Fc fusion)
VHH: EVQLVESGGGLVQPGGSLRLSCAASGFTFSPSWMGWFRQAPGKEREFVATINEYGGRNYADSVKGRFTISADNSKNTAYLQMNSLKPEDTAVYYCARVDRDFDYWGQGTLVTVSS
B6: variant 6-26 (Fc fusion)
VHH: B5 VHH with F27D, P31T, E53T, Y54G, R57T, D99T, R100T, D101S
B7: variant 6-20 (Fc fusion)
VHH: EVQLVESGGGLVQPGGSLRLSCAASGSTLPYHAMGWFRQAPGKEREFVAAITWNGASTSYADSVKGRFTISADNSKNTAYLQMNSLKPEDTAVYYCARDRYYDTSASYFESETWGQGTLVTVSS
B8: variant 6-78 (Fc fusion)
VHH: EVQLVESGGGLVQPGGSLRLSCAASGRTYDAMGWFRQAPGKEREFVASVTSGGYTHYADSVKGRFTISADNSKNTAYLQMNSLKPEDTAVYYCAKFGRKIVGATELDYWGQGTLVTVSS
B9: variant 5-1 (Fc fusion)
VHH: EVQLVESGGGLVQPGGSLRLSCAASGGTFSSIGMGWFRQAPGKEREFVAAISWDGGATAYADSVKGRFTISADNSKNTAYLQMNSLKPEDTAVYYCAKEDVGKPFDWGQGTLVTVSS
B10: variant 6-60 (Fc fusion)
VHH: EVQLVESGGGLVQPGGSLRLSCAASGDTYGSYWMGWFRQAPGKEREFVATISQSGAATAYADSVKGRFTISADNSKNTAYLQMNSLKPEDTAVYYCAGLLRYSGTYYDAFDVWGQGTLVTVSS
B11: variant 6-55 (Fc fusion)
VHH: EVQLVESGGGLVQPGGSLRLSCAASGFTMSSSWMGWFRQAPGKEREFVARITSGGSTGYADSVKGRFTISADNSKNTAYLQMNSLKPEDTAVYYCASVDGYFDYWGQGTLVTVSS
B12: variant 5-20 (Fc fusion)
VHH: EVQLVESGGGLVQPGGSLRLSCAASGRTIVPYTMGWFRQAPGKERELVAAISPSAFTEYADSVKGRFTISADNSKNTAYLQMNSLKPEDTAVYYCAARRWGYDWGQGTLVTVSS
B13: variant 5-34 (Fc fusion)
VHH: EVQLVESGGGLVQPGGSLRLSCAASGRTFSRYIMGWFRQAPGKEREFVAAISWSGGDNTYYADSVKGRFTISADNSKNTAYLQMNSLKPEDTAVYYCAAYRIVVGGTSPGDWRWGQGTLVTVSS
B14: SARS-CoV-2 variant 1-4 (antibody, V domains shown)
VH: EVQLLESGGGLVQPGGSLRLSCAASGFTFSSQAMSWVRQAPGKGLEWVSAISGSGGGTYYADSVKGRFTISRDNSKNTLYLQMNSLRAEDTAVYYCAKDRRFGEFDPWGQGTLVTVSS
VL: QSALTQPASVSGSPGQSITISCTGTSSDVGTYNLVSWYQQHPGKAPKLMIYEGSQRPSGVSNRFSGSKSGNTASLTISGLQAEDEADYYCCSYAGSSSFVVFGGGTKLTVL
B15: SARS-CoV-2 variant 1-5 (antibody, V domains shown)
VH: B14 VH
VL: B14 VL with D28G, T31S, G53A, Q55K, S97Y, S98T, V100A
B16: SARS-CoV-2 variant 1-31 (antibody, V domains shown)
VH: EVQLLESGGGLVQPGGSLRLSCAASGFTFSSYAMNWVRQAPGKGLEWVSAISGSGGSTFYADSVKGRFTISRDNSKNTLYLQMNSLRAEDTAVYYCTRPPYGDYGDYWGQGTLVTVSS
VL: B14 VL with T31K, S97R, S98T, F99P
B17: SARS-CoV-2 variant 1-30 (antibody, V domains shown)
VH: B16 VH with N35T
VL: B14 VL with S27R, T31S, S54T, Q55K, S97R, S98T, F99P
B18: SARS-CoV-2 variant 1-3 (antibody, V domains shown)
VH: B14 VH
VL: B14 VL with T25I, T31S, S54T, Q55K
B19: SARS-CoV-2 variant 1-32 (antibody, V domains shown)
VH: B16 VH with N35Y
VL: QSALTQPASVSGSPGQSITISCTGTSSDVGGYNLVSWYQQHPGKAPKLMIYEGNKRPSGVSNRFSGSKSGNTASLTISGLQAEDEADYYCCSYAGSSTFPVVFGGGTKLTVL
B20: SARS-CoV-2 variant 1-28 (antibody, V domains shown)
VH: EVQLLESGGGLVQPGGSLRLSCAASGFTFSSYGMSWVRQAPGKGLEWVSAISGSGGGTYYADSVKGRFTISRDNSKNTLYLQMNSLRAEDTAVYYCASSSSWQFDYWGQGTLVTVSS
VL: B14 VL with D28G, T31S, S98T, F99H, V100Y
B21: SARS-CoV-2 variant 1-49 (antibody, V domains shown)
VH: EVQLLESGGGLVQPGGSLRLSCAASGFTFSSYAMYWVRQAPGKGLEWVSAISGSAGSTYYADSVKGRFTISRDNSKNTLYLQMNSLRAEDTAVYYCARDTNDFWGQGTLVTVSS
VL: QSALTQPASVSGSPGQSITISCTGTSSDIGSYNLVSWYQQHPGKAPKLMIYEGTKRPSGVSNRFSGSKSGNTASLTISGLQAEDEADYYCCSYAGSRTYVFGGGTKLTVL
B22: variant 5-37 (Fc fusion)
VHH: EVQLVESGGGLVQPGGSLRLSCAASGSTFSINAMGWFRQAPGKEREFVGGISRSGATTNYADSVKGRFTISADNSKNTAYLQMNSLKPEDTAVYYCAADGVPEYSDYASGPVWGQGTLVTVSS

biological target: T1, SARS-CoV-2 spike on live SARS-CoV-2 virus (SARS-CoV-2, UniProt P0DTC2 14-1273); experiment: cell-based or functional assay

Point of comparison: B13, “EC50” value 0.54 µg/mL. Against it:
- B1 — 9-fold lower, 0.06 µg/mL
- B2 — 1.6-fold higher, 0.84 µg/mL
- B3 — 2-fold higher, 1.08 µg/mL
- B4 — 2.7-fold higher, 1.46 µg/mL
- B5 — 9-fold lower, 0.06 µg/mL
- B6 — 5.5-fold higher, 2.97 µg/mL
- B7 — 9.3-fold higher, 5.03 µg/mL
- B8 — 15-fold higher, 8.26 µg/mL
- B9 — 5.4-fold lower, 0.1 µg/mL
- B10 — 3.6-fold lower, 0.15 µg/mL
- B11 — 2.6-fold lower, 0.21 µg/mL
- B12 — 2-fold lower, 0.27 µg/mL

biological target: T2, COVID S1 RBM Fc fusion (Antigen 2) (SARS-CoV-2, UniProt P0DTC2 437-508); experiment: phage ELISA

Point of comparison: B18, “ELISA fold over background” value 1.5 fold. Against it:
- B14 — lower, 1.1 fold
- B15 — lower, 1.4 fold
- B16 — lower, 1.2 fold
- B17 — lower, 1.4 fold
- B19 — lower, 1.1 fold
- B20 — lower, 1.2 fold
- B21 — lower, 0.8 fold

biological target: T3, S1 Fc fusion protein (SARS-CoV-2, UniProt P0DTC2 14-685); experiment: phage ELISA

Point of comparison: B17, “ELISA fold over background” value 5.6 fold. Against it:
- B14 — lower, 0.9 fold
- B15 — lower, 1.2 fold
- B16 — higher, 15.7 fold
- B18 — lower, 1.5 fold
- B19 — lower, 4 fold
- B20 — lower, 1.1 fold
- B21 — lower, 0.8 fold

biological target: T1, SARS-CoV-2 spike on live SARS-CoV-2 …; experiment: cell-based or functional assay; remark: another data set of the same source

Point of comparison: B5, “EC80” value 0.115 µg/mL. Against it:
- B1 — 2-fold lower, 0.0579 µg/mL
- B2 — 9.2-fold higher, 1.06 µg/mL
- B3 — 3.7-fold higher, 0.426 µg/mL
- B4 — 18-fold higher, 2.02 µg/mL
- B6 — 31-fold higher, 3.61 µg/mL
- B7 — 20-fold higher, 2.31 µg/mL
- B8 — 120-fold higher, 13.8 µg/mL
- B9 — 7.1-fold higher, 0.811 µg/mL
- B10 — 2.1-fold higher, 0.237 µg/mL
- B11 — 3.9-fold higher, 0.445 µg/mL
- B12 — 3.3-fold higher, 0.376 µg/mL
- B13 — 5-fold higher, 0.57 µg/mL
- B22 — 110-fold higher, 12.4 µg/mL

biological target: T2, COVID S1 RBM Fc fusion (Antigen 2); experiment: phage ELISA; remark: another data set of the same source

Point of comparison: B14, “ELISA fold over background” value 1.1 fold. Against it:
- B15 — higher, 1.4 fold
- B16 — higher, 1.2 fold
- B17 — higher, 1.4 fold
- B18 — higher, 1.5 fold
- B19 — the same, 1.1 fold
- B20 — higher, 1.2 fold
- B21 — lower, 0.8 fold

biological target: T3, S1 Fc fusion protein; experiment: phage ELISA; remark: another data set of the same source

Point of comparison: B21, “ELISA fold over background” value 0.8 fold. Against it:
- B14 — higher, 0.9 fold
- B15 — higher, 1.2 fold
- B16 — higher, 15.7 fold
- B17 — higher, 5.6 fold
- B18 — higher, 1.5 fold
- B19 — higher, 4 fold
- B20 — higher, 1.1 fold

biological target: SARS-CoV-2 spike on VSV-pseudotype SARS-CoV-2 (SARS-CoV-2, UniProt P0DTC2 14-1273); experiment: cell-based or functional assay

Point of comparison: B11, “NC50” value 0.21 µg/mL. Against it:
- B1 — 3.5-fold lower, 0.06 µg/mL
- B2 — 4-fold higher, 0.84 µg/mL
- B3 — 5.1-fold higher, 1.08 µg/mL
- B4 — 7-fold higher, 1.46 µg/mL
- B5 — 3.5-fold lower, 0.06 µg/mL
- B6 — 14-fold higher, 2.97 µg/mL
- B7 — 24-fold higher, 5.03 µg/mL
- B8 — 39-fold higher, 8.26 µg/mL
- B9 — 2.1-fold lower, 0.1 µg/mL
- B10 — within 1.5-fold, 0.15 µg/mL
- B12 — within 1.5-fold, 0.27 µg/mL
- B13 — 2.6-fold higher, 0.54 µg/mL

biological target: T1, SARS-CoV-2 spike on live SARS-CoV-2 …; experiment: cell-based or functional assay; remark: another data set of the same source

Point of comparison: B1, “PRNT90” value 3.9 ng/mL. Against it:
- B2 — 16-fold higher, 62.5 ng/mL
- B3 — the same, 3.9 ng/mL
- B4 — 64-fold higher, 250 ng/mL
- B5 — lower, < 0.98 ng/mL
- B6 — 16-fold higher, 62.5 ng/mL
- B7 — 4-fold higher, 15.6 ng/mL
- B8 — 64-fold higher, 250 ng/mL
- B9 — 4-fold higher, 15.6 ng/mL
- B10 — lower, < 0.98 ng/mL
- B11 — 16-fold higher, 62.5 ng/mL
- B12 — the same, 3.9 ng/mL
- B13 — 4-fold higher, 15.6 ng/mL
